Where only a bound is given, the exact number is not on record here.

For orientation: Kd means the constant that tells how readily two partners part at equilibrium.

The labels stand for the following.
B1: G13.4 (ssDNA)
DNA: GAGGATTTGGTGGATAGTAAATCTTTG
modifications: 5' biotin
B2: G13.3 (ssDNA)
DNA: CAAGAGGATTTGGTGGATAGTAAATCTTTGC
modifications: 5' biotin
B3: G12.2 (ssDNA)
DNA: ACGTTTTTGGTGGATAGCAAATGCCAGGGCCCTTT
modifications: 5' biotin
B4: G13.7 (ssDNA)
DNA: AGAGGATTTGGTGGATAGTAAAT
modifications: 5' biotin
B5: G13.5 (ssDNA)
DNA: AAGAGGATTTGGTGGATAGTAAATCTT
modifications: 5' biotin
B6: G12.3 (ssDNA)
DNA: ACGTTTTTGGTGGATAGCAAATGCCAGGGCC
modifications: 5' biotin
B7: G13.11 (ssDNA)
DNA: AGAGGATTTGGTGGATAGT
modifications: 5' biotin
B8: G13.1 (ssDNA)
DNA: CAAGAGGATTTGGTGGATAGTAAATCTTTGCCTATCCAG
modifications: 5' biotin
B9: G13.12 (ssDNA)
DNA: TTTGGTGGATAGTAA
modifications: 5' biotin
B10: G13.2 (ssDNA)
DNA: CAAGAGGATTTGGTGGATAGTAAATCTTTGCCTAT
modifications: 5' biotin
B11: G12.4 (ssDNA)
DNA: ACGTTTTTGGTGGATAGCAAATGCCAG
modifications: 5' biotin
B12: G12.1 (ssDNA)
DNA: ACGTTTTTGGTGGATAGCAAATGCCAGGGCCCTTTTTTG
modifications: 5' biotin
B13: G12.6 (ssDNA)
DNA: GTTTTTGGTGGATAGCAAA
modifications: 5' biotin
B14: G13.8 (G13_23) (ssDNA)
DNA: GAGGATTTGGTGGATAGTAAATC
modifications: 5' biotin
B15: G12.5 (G12_23) (ssDNA)
DNA: ACGTTTTTGGTGGATAGCAAATG
modifications: 5' biotin

T1 sequence (P80188 21-198): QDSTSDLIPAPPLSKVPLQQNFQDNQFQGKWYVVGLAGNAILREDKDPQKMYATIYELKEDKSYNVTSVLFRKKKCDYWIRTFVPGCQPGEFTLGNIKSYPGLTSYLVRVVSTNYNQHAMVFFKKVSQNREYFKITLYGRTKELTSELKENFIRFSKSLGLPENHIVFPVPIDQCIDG

One series addresses T1, NGAL (UniProt P80188 21-198). Briefly: bead-based fluorescence, 4-concentration estimate; PBSMCT: DPBS with 2.5 mM MgCl2, 0.9 mM CaCl2, 0.01% Tween 20; room temperature, 1 h; bound NGAL detected with iFluor 647 anti-His antibody (6 nM). The following applies: protein: commercial; tags: C-terminal His-tag.
Turning to B1, the Kd was below 8 nM. Same read-out and setting: in the case of B2 it was below 8 nM; in that of B3, below 32 nM. As to B4, the Kd is below 16 nM. On the same count and under the same terms, in the case of B5 it was below 8 nM. Still for that read-out and setting: with B6 the figure was below 32 nM.

Regarding B7, the Kd is below 1020 nM.

Consider B8, for which the dissociation constant Kd was below 16 nM. On the same count and under the same terms, with B9 the figure was below 256 nM; with B10, below 16 nM; with B11, below 16 nM. On the same count and under the same terms, in the case of B12 it was below 16 nM; in that of B13, below 32 nM.

Staying with this series, now noted: protein: commercial; tags: C-terminal His-tag; hairpin (predicted).
Take B14: the Kd is below 8 nM. For the molecule B15, the dissociation constant (Kd) is below 16 nM.

Another series has as its target T1, NGAL. Briefly: bead-based fluorescence binding (flow cytometry); PBSMCT: DPBS with 2.5 mM MgCl2, 0.9 mM CaCl2, 0.01% Tween 20; room temperature, 1 h; bound NGAL detected with iFluor 647 anti-His antibody (6 nM). The following applies: protein: commercial; tags: C-terminal His-tag; hairpin (predicted).
Regarding B14, the dissociation constant (Kd) is 1.5 nM. The same measure, in the same setting: in the case of B15 it was 11 nM.

The values above are taken from paper PMC8062585, “Machine learning guided aptamer refinement and discovery”.
